Source: patent publication US20090280060A1, “PHOTOCHROMIC PROBES” (priority 2004, published 2009)
Read-outs that look alike come from different tables or passages of the source.

B1: CapG: 40 kD, Ca^2+ regulated actin filament barbed-end capping protein, His-tagged, cloned from mouse cDNA library (protein, UniProt P24452 1-352, looked up)
Macrophage-capping protein: MYTPIPQSGSPFPASVQDPGLHIWRVEKLKPVPIARESHGIFFSGDSYLVLHNGPEEASHLHLWIGQQSSRDEQGACAVLAVHLNTLLGERPVQHREVQGNESDLFMSYFPRGLKYYREGGVESAFHKTTSGARGAAIRKLYQVKGKKNIRATERPLSWDSFNTGDCFILDLGQNIFAWCGGKSNILERNKARDLALAIRDSERQGKAQVEIITDGEEPAEMIQVLGPKPALKEGNPEEDITADQTRPNAQAAALYKVSDATGQMNLTKVADSSPFASELLIPDDCFVLDNGLCAQIYIWKGRKANEKERQAALQVADGFISRMRYSPNTQVEILPQGRESPIFKQFFKNWK
modifications: His tag
notes: 40 kD, Ca^2+ regulated actin filament barbed-end capping protein, His-tagged, cloned from mouse cDNA library
B2: caged CapG: CapG labeled with 3-4 NVOC groups using NVOC-Cl (protein, UniProt P24452 1-352, looked up)
Macrophage-capping protein: B1 Macrophage-capping protein
modifications: caged with 3-4 NVOC groups
notes: CapG labeled with 3-4 NVOC groups using NVOC-Cl

Legend:
[1] = Thermally driven MC to SP transition, decrease of MC absorption in the dark; format: physicochemical
Experimental: FIG. 7. (A), Time dependent absorption spectra of the lowest energy transition of the MC state of compound 12 dissolved in ethanol at a concentration of 20 μM at 20° in the dark—the spectra, from top to bottom, were recorded at the following times: a) 0; b), 60 s, c), 120 s; d), 180 s; e), 240 s; f), 360 s; g), 420 s; h), 480 s. The lowermost curve is the absorption spectrum of the non-irradiated SP state. (B), The rate for the thermally driven MC to SP transition was determined by analyzing the log of the maximum absorption value for each spectrum shown in FIG. 7A as a function of time. The reaction rate of […] was calculated using a least squares fitting procedure. (C), Absorption spectra of the MC-G-actin conjugate (compound 9) as a function of time in the dark. Spectra are as follows: a), before irradiation; b), after 30 second irradiation with 365 nm light; c), after 5 minutes in the dark at 20°; d), after 22 minutes in the dark at 20°; e) after irradiation with 546 nm light for 30 seconds
Thermally-driven transitions between MC and SP. The rate for the thermal equilibration of MC to SP in ethanol was measured using the decrease in the maximum MC absorption value as a function of time in the dark (FIGS. 7A,B). […] This rate, however, is too fast for many of the envisioned applications of optical switches in biology. […]

[2] = Absorption maximum of the MC state; format: physicochemical
From the text: The family of Ca^2+-optical switch described in this invention has built-in design features that can be used to tune the maximum of the action spectrum for the MC-SP transition. The nitro group generates a weakly fluorescent MC state, which can be used to quantify the kinetics of Ca^2+-perturbations and to image the distribution of the MC state within living cells.
The absorption properties of the MC state of the Ca^2+ switch can be tuned using different 1-nitroso-2-naphthol. […] We will investigate the photophysics of optimized Ca^2+ switches based on spironaphthoxazine. We anticipate, based on our observations of the thermally-induced MC to SP transition that the rate of photochemistry for the spironaphthoxazine will be faster that the 11 μs reported for the spirobenzopyran group (Gorner, 2001).

[3] = molecular target: barbed-end of the actin filament; details: Ca^2+-dependent; Southwick & DiNubile, 1986; read-out: kd for binding to the barbed-end of the actin filament; cited from earlier work
G-actin [4] = molecular target: T1, G-actin (Oryctolagus cuniculus, UniProt P68135); experiment: CapG binding to Prodan-G-actin (fluorescence); parameters: Rabbit muscle G-actin is purified according to Marriott (1994); from tissue; host or cells: rabbit muscle; species or system Rabbit
Experimental: (§1) FIG. 20: Caging of CapG (A): Absorption spectra of […] samples of CapG (2), caged CapG (curve 1).
Preparation and characterization of caged CapG: Caged CapG was prepared using a modification of our published method for caging actin and profilin (Marriott, 1994; Marriott et al, 2003). In brief a purified solution of CapG (1 mg/ml) was dialyzed against 20 mM borate buffer, pH 8.5 overnight. The protein was centrifuged and the OD280 nm measured to determine the protein concentration (FIG. 8A). A 0.1 M acetone solution of NVOC-Cl was freshly prepared and added to the CapG with vigorous vortexing to a final concentration of 1 mM. This was usually realized by 2-3 additions over a 5-minute period. After 30 minutes at room temperature in the dark, the protein was centrifuged and dialyzed against 2×500 ml of G-buffer overnight. The absorption spectrum of the protein was recorded using the dialysis buffer as a reference and the amount of NVOC was determined by measuring the A350nm (E350nm=5,000 M^−1cm^−1). The concentration of protein was determined using the Bio-Rad Bradford assay. The introduction of 3-4 NVOC groups was sufficient to inhibit the formation of G-actin-CapG using two independent assays based on sensitivity of Prodan-actin to CapG binding. […]

G-actin [5] = molecular target: T1, G-actin; experiment: Prodan-actin polymerization kinetics; format: biochemical, Rabbit; parameters: Rabbit muscle G-actin is purified according to Marriott (1994); from tissue; host or cells: rabbit muscle
Experimental: as §1
Preparation and characterization of caged CapG: Caged CapG was prepared using a modification of our published method for caging actin and profilin (Marriott, 1994; Marriott et al, 2003). In brief a purified solution of CapG (1 mg/ml) was dialyzed against 20 mM borate buffer, pH 8.5 overnight. The protein was centrifuged and the OD280 nm measured to determine the protein concentration (FIG. 8A). A 0.1 M acetone solution of NVOC-Cl was freshly prepared and added to the CapG with vigorous vortexing to a final concentration of 1 mM. This was usually realized by 2-3 additions over a 5-minute period. After 30 minutes at room temperature in the dark, the protein was centrifuged and dialyzed against 2×500 ml of G-buffer overnight. The absorption spectrum of the protein was recorded using the dialysis buffer as a reference and the amount of NVOC was determined by measuring the A350nm (E350nm=5,000 M^−1cm^−1). The concentration of protein was determined using the Bio-Rad Bradford assay. The introduction of 3-4 NVOC groups was sufficient to inhibit the formation of G-actin-CapG using two independent assays based on sensitivity of Prodan-actin to CapG binding. In FIG. 20B, CapG binding to Prodan-G-actin is seen to shift the emission spectrum, from 496 nm to 465 nm, and is accompanied by a 1.5 fold (FIG. 20B, curve 1)—this signal can be used to analyze the effects of CapG on actin polymerization kinetics as shown in FIG. 20C.

Row | Molecule | thermal reversion to the SP state [1] | MC state absorption maximum [2] | Kd [3] [nM] | Kd (G-actin [4]; data not shown, read-out: kd of complex with G-actin) [nM] | effect on actin polymerization (G-actin [5]) | binding to G-actin (G-actin [4]; Prodan-G-actin) | effect on actin polymerization (G-actin [5]; listed as Caged CapG)
1 | CN1c2cc(CBr)ccc2C(C)(C)C12C=Nc1c(ccc3ccccc13)O2 (centres unmarked) [Compound 17, 6′-(Bromomethyl)spironaphthoxazin] | within seconds | about 620 nm |  |  |  |  | 
2 | B1 |  |  | 1000 | 100 | inhibits the polymerization of G-actin |  | 
3 | B2 |  |  |  |  | limited effect on the rate of actin polymerization | binds poorly to G-actin | almost normal polymerization kinetics
